Reference: the nanobody polyreactivity screen of Harvey et al. (2022)

Experiment: yeast display, Sf9 membrane polyspecificity reagent, FACS + sequencing; frameworks hold sequencing errors
Summary of the method: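 Synthetic nanobody libraries on Saccharomyces cerevisiae BJ5465 were galactose-induced for 36–48 hours, stained 1 hour at 4 °C with 10% biotinylated, detergent-solubilized Sf9 membrane reagent and enriched on streptavidin microbeads. FACS then separated cells into low and high (top ~1%) gates by anti-HA (expression) and streptavidin (reagent binding) fluorescence. Genes were colony-PCR amplified, MiSeq 2 × 250 sequenced and CDR-length filtered. A clone's polyreactivity label is that of its gate of origin.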
In the case of “QVQLVESGGGLVQAGGSLRLSCTASGIIFGTYAMGWYRQAPGKERELVAAISSSGVSTYYADSVKGRFTISRDNAKYTDYLQMNSLKPEDTAVYYCAAPLHYGYYYCGQGTQVTVSS”, the “polyreactivity (PSR sort gate)” value is reported as “high polyreactivity”.
With “QVQLVESGGGLVQAGGSLRLSCAASGITFYGYDMGWYIQAPGKERELVAAISRSGGSTYYADSVKGRFTISRDNAKNTVYLQMNSLKPEDTAVYYCAADKQGYRGRTPYRYYSWGQGTQVTVSS” the “polyreactivity (PSR sort gate)” value was “high polyreactivity”.
In the case of “QVQRVECGGGLVLAGGSLRLSCAASGRILVFYAMGWYRQARGKVRELVATITDTGRTNYADSVKGRCTISRDNAKKTDSLQMTSQKPEDTAVYYCAKQRDYGFPWATYDYWGQGTQGTVSS”, the “polyreactivity (PSR sort gate)” value is reported as “low polyreactivity”.
For “QVQLVESGGGLVQAGGSLRLSCAASGSIFGRYAMGWYRQARGKERELVAAISWSGGSTYYADSVKGRFTISRDNAKNTVYLQMNSLKPEDTAVYYCAANYKYAYEYWGQGTQVTVSS”, the “polyreactivity (PSR sort gate)” value was “high polyreactivity”.
For “QVQLVESGGGLVQAGGSLRLSCAASGNTIYKYTMGWSRQAPGKERELVAVISSSSGSTYYADSVKGRFTISRDNAKNTVYLQMNSLKPEDTAVYYCNKRGWWDLRHDYWGQGTQVTVSS”, the “polyreactivity (PSR sort gate)” value was “low polyreactivity”.
With “QVQLVESGGGLVQAGGSLRLSCAASGSIFRVYAMGWYRQAPGKERELVAVITWTGGITYYADSVKGRFTISRDNAKNTVYLQMNSLKPEDTAVYYCNADLLTFAIKAPTGFYYWGQGTQVTVSS” the “polyreactivity (PSR sort gate)” value was “high polyreactivity”.
In the case of “QVQLVESGGGLVHAGGSLRLSCAPSGSIFTPYAMGWYRQAPAKDRELVADNTYRGGSTYYADSVKGRFTISRDNAKNSVYLQINSLKAEDSAVYYCNADVFTDYRHTRDDYWGQGTQVTVSS”, the “polyreactivity (PSR sort gate)” value is reported as “low polyreactivity”.
In the case of “QVQLVESGGGLVQAGGSLRLSCAASGNTFGVYAMGWYRQAPGKERELVAAIRYRGGSTYYADSVKGRFTISRDKAKNTVYLQMTSLKPEETAVYYCAAVYYVQYVGRYYYWGQGTQVTVSS”, the “polyreactivity (PSR sort gate)” value is reported as “high polyreactivity”.
For “QVQLVESGGGIVQAGGSLRLSCAASGIIFSWYAMGWYRQAPGKERELVAAISKGGGSTYYADSVKGRFTISRDNAKNTVYLQMNSLKPEDTAVYYCAAASSYGYGYWGQGTQVTVSS”, the “polyreactivity (PSR sort gate)” value was “high polyreactivity”.
In the case of “QVQLVESGGGLVQAGGSLRLSCAASGSISSQNAMVSYRQAPGKERELVAAISWIGGSTYYADSVKGRFTISRDFAKNTVYLQMNSLKPEDTAVYYCAKDRARGFKYYYWGQGTQVTVSS”, the “polyreactivity (PSR sort gate)” value is reported as “low polyreactivity”.
In the case of “QVQLVESGGGLVQAGGSLRLSCAASGRIFDANAMGWYRQAPGKERELVAAITYSGGRTYYADSVKGRFTISRDNAKNTVYLQMNSLKPEDTAVYYCAKRYAYIYDSWGQGTQVTVSS”, the “polyreactivity (PSR sort gate)” value is reported as “low polyreactivity”.
In the case of “QVQLVESGGGLVQAGGSLRLSCAASGFIFDIYAMGWYRQAPGKERELVASITWDDGSTYYADSVKGRFTISRDNAKNTVYLQMNRLKPVDTAVYYCAADFEAGGYSLDYWGQGTQVTVSS”, the “polyreactivity (PSR sort gate)” value is reported as “low polyreactivity”.
With “QVQLVESGGGLVHAGCSLRLSCAAYGRNFYRYAMGWYRQAPGKERALVAAISGSVGSTYADTEKGRFTSSRDNAKNTVYLQMNSLKPEDTAVYYCARESYRRYGAYDYWGQGTQVTESS” the “polyreactivity (PSR sort gate)” value was “low polyreactivity”.
With “QVQLVESGGGLVQAGGSLRLSCAASAIIFYKNAMGWYRQAPGKERELVAAITRGGSTNYADSVKGRFTISRDNAKNTVYLQMNSLKPEDTAVYYCDKRWFYTRYPTYDYWGQGTQVTVSS” the “polyreactivity (PSR sort gate)” value was “low polyreactivity”.
With “QVQRVESGGGLVQEGGSLSLSCAASGSTYKNAMGWYRQAPGKERELVAAITWSGGTTYYADSVKGRFTISRDNAKNTVYLQINSLKPEDTAVYYCAAEYRWYSRYFNYWGQGTQVTVSS” the “polyreactivity (PSR sort gate)” value was “high polyreactivity”.
For “QVQLVESGGGLVQAGGSLRLSCAPSGLIFYGYAMGWYRQAPGKERELVAAISCSGGRTYYADSVKGRFTISRDNAKNTVYLQMNSLKPEDTAVYYCNVRNRYRPYLPFWPDDYWGQGTQVTVSS”, the “polyreactivity (PSR sort gate)” value was “high polyreactivity”.
For “QVQLVESGGGLVQAGGSLRLSCAASGRTFGINAMGWYRQAPGKERELVAVISFGDGGTYYADSVKGRFTISRDNAKNTVYLQMNSLKPEDSAVYYCAAEVVAQMNYWGQGTQVTVSS”, the “polyreactivity (PSR sort gate)” value was “low polyreactivity”.
In the case of “QVQLVESVGALVQARGSLRLSCAASGFTFRPYAMGWYRQAPGKERELVAAITRSGGSTYYADSVKGRFTISRDTAKNTVYLQMNSLKPEDTAVYYCAARFARSEYDYWGQGTQVTVSS”, the “polyreactivity (PSR sort gate)” value is reported as “high polyreactivity”.
With “QVQLVESGGGLVQAGGSLRLSCAASGSIFVANAMGWYRQAPGKERELVAAISASGVTTYYADSVKGRFTISRDNAKNTVYLQMNSLKPEDTAVYYCNADYGSDDDVVRYDYWGQGTQVTVSS” the “polyreactivity (PSR sort gate)” value was “low polyreactivity”.
For “QVQLVETGGGLVQAGGSLRLSCAASGIIFSRYAMGWYRQAPGKERELVAAISTSGGRTFYADSVKGRFTISRDNAKNTVYLQMNSLKPEDTAVYYCAVDDLGWTTGGYLYLYGYWGQGTQVTVSS”, the “polyreactivity (PSR sort gate)” value was “high polyreactivity”.
In the case of “QVQLVESGGGLVQAGGSLRLSCAASGSTFYIYAMGWYRQAPGKEREFFAAITWSGGRTFYADSVKGRFTISRDNAKNTVYFQMNSLKPEDTAVYYCAARFWSDKTGSRYYYWGQGTQVTVSS”, the “polyreactivity (PSR sort gate)” value is reported as “high polyreactivity”.
For “QVQLVESGGGLVQAGGSLRLSCAASGIFLGYALGWYRQAPGKERELVAAITSGDSTYYADSVKGRFTISRDNAKNTVYLQMNSLKPEDTAVYYCAKTRYSWPRVWYNYWGQGTQVTVSS”, the “polyreactivity (PSR sort gate)” value was “low polyreactivity”.
With “QVQLVESGGGLVQAGGSLRLSCAASGSTFPRYAMGWYIPAPGNERELVAAISSGGSTYYADSVKGRFTISRDNAKNTVYLQMNSLKPEDTAVYYCNARRSRSRYDYWGQGTQVTVSS” the “polyreactivity (PSR sort gate)” value was “high polyreactivity”.
In the case of “QVQLVESGGGLVQAGGSLRLSCAASGRIFAYYAMGWYRQAPGKERELVAAITTNGGGTYYADSVKGRFTISRDNAKNTFYLQMNSLKPEDTGVYYCNAVKQRSSIFDYWGQGTQVTVSS”, the “polyreactivity (PSR sort gate)” value is reported as “low polyreactivity”.
In the case of “QVQLVESGGGLVQAGGSLRLSCAASGRTFWYYAMGWYRQAPGKERELVASISRSGGSTYYADSVKGRFTISRDNAKNTVYLQMNSLKPEDTAVYYCARGSELGYYAWVYYWGQGTQVTVSS”, the “polyreactivity (PSR sort gate)” value is reported as “high polyreactivity”.
For “QVQLVESGGGLVQAGGSLRLSCAASGYTFIHNAMGWYRQAPGKERELVAAINRSGGITNYADSVKGRFTISRDNAKNTVYLQMNSLKPEDTAVYYCNADVDPLPPRYLHREVLKEYNYWGQGTQVTVSS”, the “polyreactivity (PSR sort gate)” value was “low polyreactivity”.
In the case of “QFQIEESGGGLVQAGGSLRLSCAASGNTFYWNAMGWYRQAPGKDRELVAAISTTGVSTYYADSVKGRFTISRDNAKITVYLQMNSLKPEDTAVYYCAAEIIGYHTIYDYWGQGTQVTVSS”, the “polyreactivity (PSR sort gate)” value is reported as “low polyreactivity”.
For “QVQLVESGGGLVQAGGSLRLSCAASGFTFRLYVMGWYRQAPGKERELVAAISSRGGSTYYADSVKGRFTISRDNAKNTVYLQMNSLKPEDTAVYYCAADRPRGRETVDYWGQGTQVTVSS”, the “polyreactivity (PSR sort gate)” value was “high polyreactivity”.
In the case of “QVQLVESGGGLVQAGGSLRLSCAASGSIFYYYAMGWYRQAPGKERELVAAISRNGGSTSYADSVKGRFTISRDNAKNTVYLQMNSLKPEDTAVYYCNTYGGYKYDYWGQGTQVTVSS”, the “polyreactivity (PSR sort gate)” value is reported as “low polyreactivity”.
With “QVQLVESGGGLVQAGGSLRLSCAASGGTFGKNAMGWYRQAPGKERELVAAITWSGARTFYADSVKGRFTISRDNAKNTVYLQMNSLKPEDTAVYYCAKGGTRFTRYEYWGQGTQVTVSS” the “polyreactivity (PSR sort gate)” value was “high polyreactivity”.
In the case of “QVQLVESGGGLVQAGGSLRLSCAASGIIFWTYTMGWYRQAPGKERELVAAISSGGSTTYADSVKGRFTISRDNSMNTVFLQMNWLKPEDTAVYYCAKRRQYQRSYNYWGKGTQVTVSS”, the “polyreactivity (PSR sort gate)” value is reported as “low polyreactivity”.
For “QVQLVESGGGLVQAGGSLRLSCAASGFIFDDNAMGRYRQAPGKERELVAAITSGGGSTYYADSVKGRFTISRDNAKNTVYLQMNSLKPEDNAVYYCNAVPSQHVEFDYWGQGTQVTVSS”, the “polyreactivity (PSR sort gate)” value was “low polyreactivity”.
With “QVQLVESGGCLVQAGGSLRLSCAASGRIFRYNTMGWYRQAPGKEREFVASISNGGSTNYADSVKGRFTISRDNAKNTVYLQMNSLKPEDTAVYYCNADVPSDGYPGYPGGFESWGQGTQVTVSS” the “polyreactivity (PSR sort gate)” value was “low polyreactivity”.
With “QVQLVESGGGLDQAGGSLRLSCAASGRTFGRYAMGWYRQAPGKERELVAAITRSGSSTYYADSVKGRFTISRDNAKNTVYLQMNSLKPEDTAVYYCAAGPRPRPSDYWGQGTQVTVSS” the “polyreactivity (PSR sort gate)” value was “high polyreactivity”.
In the case of “QVQLVESGGGLVQAGGSLRLSCAASGRIFYLNVMGWYRQAPGKERELVAAITRRDVTTYADSVKGRFTISRDNAKNTVYLQMNSLKPEDTAVYYCNAVYYNWIGFDYSGQGTQVTVSS”, the “polyreactivity (PSR sort gate)” value is reported as “low polyreactivity”.
In the case of “QVQLVESGGGLVQAGGSLRLSCAASGITFLYYAMGWYRQAPGTERELVAAITSSGGRTYYADSVKGRFTISRDNAKNTVCLQMNSLKPEDTAVYYCAADSRTYNGGYYWGQGTQVTVSS”, the “polyreactivity (PSR sort gate)” value is reported as “high polyreactivity”.
With “QVQLVESGGGLVQAGGSLRISCAASGSNFAYYAMGWYRQAPGKERELVAAITRGGRTYYADSVKGRFTISRDNAKNTVYLQMNSLKPEDTAVYYCNARNYTWYSSRFMRFDYWGLGTQVTVSS” the “polyreactivity (PSR sort gate)” value was “high polyreactivity”.
With “QVQLVESGGGLVQAGGSLRLSCAASGFIFVRYTMGWYRQAPGKERELVAAISRSSDSTYYADSVKGRFSISRDNAKNTVYLQMNSLKPEVTAVYYCAAFSGFSPFRFYYWGQGTQVTVSS” the “polyreactivity (PSR sort gate)” value was “high polyreactivity”.
In the case of “QVQLVESGGGLVQAGGSLRLSCAASGITFAYYAMGWYRQAPGKERELVAAITGDGGSTYYADSVKGRFTISRDNAKNTVYLQMNSLKPEDTAVYYCNAELSDYRYDWWDYDYWGQGTQVTVSS”, the “polyreactivity (PSR sort gate)” value is reported as “high polyreactivity”.
In the case of “QVQLVESGGGLVQAGGSLRLSCAASGRIFTFYAMGWYRQAPGKARELVASITGGGNTYYADSVKGRFTISRDNAKNTVYLQMNSLKPEDTAVYYCNADEWRWDEIIPYAVDYWGQGTQVTVSS”, the “polyreactivity (PSR sort gate)” value is reported as “low polyreactivity”.
For “QVQLVESGGGLVQAGGSLRLSCAASGLTFHRYAMGWYRQAPGKERELVAAINYSGGRTYYADSVKGRFTISRDNAKNTLYLQMNSLKPEDTAVYYCAAPRASGYYWGQGTQVTVSS”, the “polyreactivity (PSR sort gate)” value was “high polyreactivity”.
